From patent US20260151494A1 (ARO BIOTHERAPEUTICS, published 2026)

Tests used:
[1] = target: T1, apical domain of human CD71 (human, UniProt P02786 189-383, limits assumed); assay: primary ELISA; also: test concentration or dose not given here
T1 construct: domain: apical domain; Screen 4 panned on human apical domains, the ELISA text says only 'apical domain'

[2] = target: T2, human CD71 extracellular domain (human, UniProt P02786 89-760, biotinylated); assay: primary ELISA; also: test concentration or dose not given here
T2 construct: also called hCD71; CD71-ECD
T2 sequence (P02786 89-760): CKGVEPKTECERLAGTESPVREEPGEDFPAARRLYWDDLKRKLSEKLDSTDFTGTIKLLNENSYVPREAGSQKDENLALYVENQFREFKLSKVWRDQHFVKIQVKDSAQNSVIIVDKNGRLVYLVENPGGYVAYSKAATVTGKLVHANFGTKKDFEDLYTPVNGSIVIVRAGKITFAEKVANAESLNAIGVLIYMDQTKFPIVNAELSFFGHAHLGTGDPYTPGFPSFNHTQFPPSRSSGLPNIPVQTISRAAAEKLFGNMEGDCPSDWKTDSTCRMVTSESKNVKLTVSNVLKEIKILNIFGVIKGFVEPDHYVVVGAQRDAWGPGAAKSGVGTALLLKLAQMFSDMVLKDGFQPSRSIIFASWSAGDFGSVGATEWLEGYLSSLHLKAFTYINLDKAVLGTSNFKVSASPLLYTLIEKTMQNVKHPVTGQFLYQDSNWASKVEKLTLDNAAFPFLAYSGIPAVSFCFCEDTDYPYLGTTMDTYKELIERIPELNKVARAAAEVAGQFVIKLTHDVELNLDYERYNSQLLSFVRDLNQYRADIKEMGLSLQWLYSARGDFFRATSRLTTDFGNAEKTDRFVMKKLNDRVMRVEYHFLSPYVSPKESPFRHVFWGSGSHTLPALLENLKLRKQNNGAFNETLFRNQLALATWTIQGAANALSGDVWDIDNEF

[3] = target: T1, apical domain of human CD71; assay: primary ELISA, RLU over HSA
[4] = target: T2, human CD71 extracellular domain; assay: primary ELISA, RLU over HSA

T1 sequence (P02786 189-383 limits assumed): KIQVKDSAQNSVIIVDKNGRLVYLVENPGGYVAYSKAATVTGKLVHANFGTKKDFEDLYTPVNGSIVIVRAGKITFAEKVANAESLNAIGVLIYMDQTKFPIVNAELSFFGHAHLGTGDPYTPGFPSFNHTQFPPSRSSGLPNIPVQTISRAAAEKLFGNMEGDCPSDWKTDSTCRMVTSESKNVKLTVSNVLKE

B1: CD71-binding FN3 domain of SEQ ID NO: 505 (designed binder)
chain: MLPAPKNLVVSRVTEDSARLSWTALDAAFDSFFIGYLEPQPPGEAIHLFVPGSERSYDLTGLKPGTEYNVTIQGVKGGFPSEPLIANFTT
B1 was tested, and the RLU [1] was 5.64e+06 RLU, the RLU [2] was 5.38e+06 RLU and the “Apical domain:HSA” value [3] was 54. For the same binder, the “hCD71:HSA” value [4] was 52.

B2: CD71-binding FN3 domain of SEQ ID NO: 508 (designed binder)
chain: MLPAPKNLVVSRVTEDSARLSWTAPDAAFDSFFIGYLEPQPPGEAITLSVPGSERSYDLTGLKPGTEYNVTIQGVKGGFPSEPLIAIFTT
B2 was tested, and the RLU [1] was 3.55e+06 RLU, the RLU [2] was 4.22e+06 RLU and the “Apical domain:HSA” value [3] was 222. The “hCD71:HSA” value [4] was 264.

B3: CD71-binding FN3 domain of SEQ ID NO: 511 (designed binder)
chain: MLPAPKNLVVSRVTEDSARLSWTAPDAAFDSFFIGYLEPQPPGEAIDLFVPGSERSYDLTGLKPGTEYNVTIQGVKGGFPSLPLVASFTT
B3 was tested, and the RLU [1] was 5.48e+06 RLU, the RLU [2] was 5.03e+06 RLU and the “Apical domain:HSA” value [3] was 53. The “hCD71:HSA” value [4] was 49.

B4: CD71-binding FN3 domain of SEQ ID NO: 512 (designed binder)
chain: MLPAPKNLVVSRVTEDSARLSWTAPDAAFDSFFIGYLEPQPPGEAIDLWVPGSERSYDLTGLKPGTEYNVTIQGVKGGFPSDPLDAHFTT
For B4, the RLU [1] was 3.87e+06 RLU, the RLU [2] was 2.06e+06 RLU and the “Apical domain:HSA” value [3] was 233. The “hCD71:HSA” value [4] was 124.

B5: CD71-binding FN3 domain of SEQ ID NO: 513 (designed binder)
chain: MLPAPKNLVVSRVTEDSARLSWTAPDAAFDSFFIGYLEPQPPGEAISLYVPGSERSYDLTGLKPGTEYNVTIQGVKGGFPSLPLAAQFTT
In the case of B5, the RLU [1] is reported as 2.72e+06 RLU, the RLU [2] is reported as 2.52e+06 RLU and the “Apical domain:HSA” value [3] is reported as 201. For the same binder, the “hCD71:HSA” value [4] was 186.

B6: CD71-binding FN3 domain of SEQ ID NO: 514 (designed binder)
chain: MLPAPKNLVVSRVTEDSARLSWTAPDAAFDSFFIGYLEPQPPGEAIHLFVPGSERSYDLTGLKPGTEYNVTIQGVKGGFPSEPLIANFTT
For B6, the RLU [1] was 5.94e+06 RLU, the RLU [2] was 5.92e+06 RLU and the “Apical domain:HSA” value [3] was 119. The “hCD71:HSA” value [4] was 119.

B7: CD71-binding FN3 domain of SEQ ID NO: 515 (designed binder)
chain: MLPAPKNLVVSRVTEDSARLSWTAPDAAFDSFFIGYLEPQPPGEAIALWVPGSERSYDLTGLKPGTEYNVTIQGVKGGFPSTPLIAQFTT
For B7, the RLU [1] was 4.67e+06 RLU, the RLU [2] was 5.14e+06 RLU and the “Apical domain:HSA” value [3] was 88. For the same binder, the “hCD71:HSA” value [4] was 97.

B8: CD71-binding FN3 domain of SEQ ID NO: 516 (designed binder)
chain: MLPAPKNLVVSRVTEDSARLSWTAPDAAFDSFFIGYLEPQPPGEAISLWVPGSERSYDLTGLKPGTEYNVTIQGVKGGFPSSPLVAYFTT
In the case of B8, the RLU [1] is reported as 4.67e+06 RLU, the RLU [2] is reported as 4.73e+06 RLU and the “Apical domain:HSA” value [3] is reported as 264. For the same binder, the “hCD71:HSA” value [4] was 267.

B9: CD71-binding FN3 domain of SEQ ID NO: 517 (designed binder)
chain: MLPAPKNLVVSRVTEDSARLSWTAPDAAFDSFFIGYLEPQPPGEAIALVVPGSERSYDLTGLKPGTEYNVTIQGVKGGFPSMPLFAYFTT
For B9, the RLU [1] was 3.64e+06 RLU, the RLU [2] was 3.12e+06 RLU and the “Apical domain:HSA” value [3] was 166. The “hCD71:HSA” value [4] was 142.

B10: CD71-binding FN3 domain of SEQ ID NO: 518 (designed binder)
chain: MLPAPKNLVVSRVTEDSARLSWTAPDAAFDSFFIGYLEPQPPGEAISLWVPGSERSYDLTGLKPGTEYNVTIQGVKGGFPSDPLGAHFTT
For B10, the RLU [1] was 3.34e+06 RLU, the RLU [2] was 1.85e+06 RLU and the “Apical domain:HSA” value [3] was 271. The “hCD71:HSA” value [4] was 150.

B11: CD71-binding FN3 domain of SEQ ID NO: 521 (designed binder)
chain: MLPAPKNLVVSRVTEDSARLSWTAPDAAFDSFFIGYLEPQPPGEAIVLWVPGSERSYDLTGLKPGTEYNVTIQGVKGGFPSHPLVAHFTT
With B11 the RLU [1] was 5.38e+06 RLU, the RLU [2] was 5.62e+06 RLU and the “Apical domain:HSA” value [3] was 178. The “hCD71:HSA” value [4] was 186.

B12: CD71-binding FN3 domain of SEQ ID NO: 522 (designed binder)
chain: MLPAPKNLVVSRVTEDSARLSWTAPDAAFDSFFIGYLEPQPPGEAITLYVPGSERSYDLNGLKPGTEYNVTIQGVKGGFPSMPLSAIFTT
For B12, the RLU [1] was 3.48e+06 RLU, the RLU [2] was 3.91e+06 RLU and the “Apical domain:HSA” value [3] was 283. The “hCD71:HSA” value [4] was 318.
